The values that follow come from article PMC13577001, “Crystal structures of the μ2 subunit of clathrin-adaptor protein 2 in complex with peptides derived from human papillomavirus 16 E7” (The Journal of Microbiology, 2025).

Assay [1] has as its target T1, AP2-μ2 (μ2 subunit of clathrin-adaptor protein 2, residues 158–435) (Rattus norvegicus, UniProt P84092).
T1 construct: recombinant AP2-μ2 protein (residues 158–435) expressed in E. coli; made in house; host or cells: Escherichia coli BL21(DE3) RIL
T1 sequence (P84092 158-435): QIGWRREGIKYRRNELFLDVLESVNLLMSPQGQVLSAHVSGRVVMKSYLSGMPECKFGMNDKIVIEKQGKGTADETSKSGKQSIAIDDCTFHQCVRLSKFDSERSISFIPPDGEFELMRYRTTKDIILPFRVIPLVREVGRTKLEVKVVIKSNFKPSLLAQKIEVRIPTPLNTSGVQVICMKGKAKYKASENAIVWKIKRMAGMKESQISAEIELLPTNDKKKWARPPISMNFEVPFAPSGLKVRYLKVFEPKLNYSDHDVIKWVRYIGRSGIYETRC
In words: ITC binding of HPV E7-derived synthetic peptides to recombinant wild-type AP2-μ2. The note with it: for binding to AP2-μ2 in ITC (result in words): peptide titrated into wild-type recombinant AP2-μ2. How it is done:
A DNA fragment encoding residues 158–435 of the μ2 subunit of rat AP2 was cloned into a modified pET28a plasmid (Novagen, USA) to produce a recombinant protein tagged with (His)10−maltose-binding protein. The recombinant protein was expressed in Escherichia coli BL21(DE3) RIL cells (Novagen) grown in Luria-Bertani medium at 18°C for 16 h following induction with 0.5 mM isopropyl β-D-thiogalactopyranoside. Proteins were purified using Ni-NTA affinity chromatography (QIAGEN, Germany), followed by size-exclusion chromatography on a HiLoad 26/600 Superdex 200 prep grade column (Cytiva, USA). The (His)10−maltose-binding protein tag was cleaved by TEV protease and removed during subsequent purification steps. Final protein samples were equilibrated in a buffer containing 50 mM Tris-HCl (pH 7.5), 500 mM NaCl, and 3 mM β-mercaptoethanol. […] Crystals were obtained using the sitting-drop vapor diffusion method at 18°C by from a mixture of 1 μl protein solution (10 mg/ml) and 1 μl precipitant solution. […] X-ray diffraction data were collected at beamlines 5C and 7A of the Pohang Accelerator Laboratory (Korea) and processed using HKL2000 ([Otwinowski and Minor, 1997]). Molecular replacement was performed using Phaser ([McCoy et al., 2007]) with the structure of AP2-μ2 complexed with a PIP5KIγ-derived peptide (Protein Data Bank [PDB] code: 3H85) used as the search model ([Kahlfeldt et al., 2010]). Model building and refinement were performed using Coot ([Emsley and Cowtan, 2004]) and PHENIX ([Adams et al., 2010]), respectively.
Recombinant AP2-μ2 protein harboring R402A∙K405A mutations was prepared and purified using the same protocol as that used for the wild-type protein. […] All peptides were dialyzed against the same buffer used for AP2-μ2 purification. Isothermal titration calorimetry (ITC) was performed using recombinant AP2-μ2 proteins and synthetic peptides as previously described ([Jung et al., 2023]; [Lim et al., 2021]).
Fig. 2. ITC analysis of the effect of the Y-x-x-Φ motif on complex formation. Each peptide (0.2 mM) was titrated into 10 μM recombinant AP2-μ2 as indicated. KD and Ka values were deduced from curve fitting of the integrated heat per mole of added ligand. Mutated residues are highlighted in blue.
Fig. 3. ITC analysis of the effect of the acidic cluster region on complex formation. Each peptide was titrated into wild-type (A) or R402A∙K405A mutant (B) recombinant AP2-μ2 as indicated. KD and Ka values were obtained by curve-fitting of the integrated heat per mole of added ligand. Mutated residues are highlighted in blue. […] Negatively charged cluster residues are marked in red.

Assay [2] has as its target integrin α4 (Homo sapiens). In words: ITC. Particulars: cited from earlier work.
For the next assay, the target named is PIP5KIγ (Homo sapiens). Kind of assay: ITC. Particulars: cited from earlier work.
The target in assay [3] is T2, μ2 subunit of clathrin-adaptor protein 2 (AP2-μ2), residues 158–435, wild type (rat, UniProt P84092 158-435).
T2 chain: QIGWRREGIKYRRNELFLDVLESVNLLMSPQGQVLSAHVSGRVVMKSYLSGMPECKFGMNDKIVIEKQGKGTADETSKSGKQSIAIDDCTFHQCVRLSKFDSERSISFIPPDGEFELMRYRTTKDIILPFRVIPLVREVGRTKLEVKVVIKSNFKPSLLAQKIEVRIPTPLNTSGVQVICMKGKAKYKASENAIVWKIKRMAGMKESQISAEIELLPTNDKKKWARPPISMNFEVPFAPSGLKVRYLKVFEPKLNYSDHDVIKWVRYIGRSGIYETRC
Kind of assay: ITC.

The target of assay [4] is T3, μ2 subunit of clathrin-adaptor protein 2 (AP2-μ2), residues 158–435, wild type (rat, UniProt P84092 158-435).
T3 construct: also called recombinant AP2-μ2; μ2 subunit of rat AP2; source: E. coli BL21(DE3) RIL, purified (Ni-NTA, SEC)
T3 sequence (looked up): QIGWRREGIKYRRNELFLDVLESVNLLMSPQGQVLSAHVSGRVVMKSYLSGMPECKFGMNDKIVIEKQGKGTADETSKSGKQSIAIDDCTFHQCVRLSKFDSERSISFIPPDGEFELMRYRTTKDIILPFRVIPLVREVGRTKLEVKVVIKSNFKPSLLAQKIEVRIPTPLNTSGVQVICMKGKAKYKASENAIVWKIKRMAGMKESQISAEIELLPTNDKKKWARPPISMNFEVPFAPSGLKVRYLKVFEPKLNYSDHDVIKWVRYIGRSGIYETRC
Kind of assay: ITC; peptide titrated into recombinant AP2-μ2; 50 mM Tris-HCl (pH 7.5), 500 mM NaCl, 3 mM β-mercaptoethanol; in Fig. 2 peptide 0.2 mM into 10 μM AP2-μ2. The note with it: both partners purified.

Assay [5] deals with T4, AP2-μ2 (residues 158–435) R402A∙K405A mutant (rat, UniProt P84092 158-435, R402A | K405A).
T4 construct: also called R402A∙K405A mutant recombinant AP2-μ2; source: E. coli, purified by the same protocol as the wild-type protein
T4 sequence: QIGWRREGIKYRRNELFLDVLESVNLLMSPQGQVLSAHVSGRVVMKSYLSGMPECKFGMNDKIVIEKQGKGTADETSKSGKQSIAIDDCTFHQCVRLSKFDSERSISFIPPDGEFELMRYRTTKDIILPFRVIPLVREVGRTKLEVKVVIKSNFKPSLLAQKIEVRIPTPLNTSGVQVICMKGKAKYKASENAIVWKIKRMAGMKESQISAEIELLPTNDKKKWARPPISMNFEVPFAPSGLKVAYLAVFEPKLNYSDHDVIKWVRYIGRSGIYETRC
The assay is described as above. Particulars: both partners purified.

In assay [6] the target is T2, μ2 subunit of clathrin-adaptor protein …. Kind of assay: ITC.

Like-named read-outs stand apart in the source and are kept apart here. No end group written: not given here.

Consider “Y25H: 11-mer HPV16 E7 residues 22–32 synthetic peptide with Y25H mutation (LYCHEQLNDSS)”, for which the “binding to AP2-μ2 in ITC (result in words)” value (from here on “binding to AP2-μ2 in ITC”) in assay [1] is given as “severely impaired”.

“residues 25–42 of HPV18 E7: 18-mer peptide lacking the Y-x-x-Φ motif, residues 25–42 of HPV18 E7 (LLCHEQLSDSEEENDEID; UniProt P06788 25-42, looked up, fragment)”: the “binding to AP2-μ2 in ITC” value in assay [1] is on record as “did not bind”.

Usually Kd stands for the free concentration of one partner at which half of the binding sites on the other are occupied at equilibrium, for simple one-to-one binding. Consider AP2-μ2 (from UniProt Q96CW1), for which the Kd in assay [2] is 72 µM; with PIP5KIγ (Homo sapiens) it was 6 µM.

On to “L28A: 11-mer HPV16 E7 residues 22–32 synthetic peptide with L28A mutation (LYCYEQANDSS)”, for which the “binding to AP2-μ2 in ITC” value in assay [1] is listed as “severely impaired”.

On to LHCYEELSEEETEEEPRF [HPV15 E7(24–41)], for which the Kd in assay [1] was determined as 13.3 µM.

Consider “Y25N: 11-mer HPV16 E7 residues 22–32 synthetic peptide with Y25N mutation (LYCNEQLNDSS)”, for which the “binding to AP2-μ2 in ITC” value in assay [1] is on record as “severely impaired”.

B1: HPV16 E7(22–32) wild-type 11-mer peptide (peptide)
peptide: LYCYEQLNDSS
notes: source: synthetic peptide, bought: Dandicure (Korea)
On to B1, for which, in assay [3], the Ka came out at 170000 M⁻¹. In assay [4], the equilibrium dissociation constant (Kd) came out at 5.88 µM.

B2: HPV16 E7(16–32; S31E∙S32E) 17-mer peptide (peptide)
peptide: QPETTDLYCYEQLNDEE
notes: as for B1
Turning to B2, the Kd came to 8.26 µM in assay [5] and 1.64 µM in assay [4].

B3: HPV16 E7(22–32; S31E∙S32E) 11-mer phosphomimetic peptide (peptide)
peptide: LYCYEQLNDEE
notes: also called 11-mer phosphomimetic mutant HPV16 E7 peptide; source: synthetic peptide, bought: Dandicure (Korea)
For the molecule B3, the Kd in assay [4] was 1.54 µM.

B4: HPV16 E7(22–39; S31E∙S32E) 18-mer phosphomimetic peptide (peptide)
peptide: LYCYEQLNDEEEEEDEID
notes: HPV16 E7 residues 22–39 with S31E and S32E; source: synthetic peptide, bought: Dandicure (Korea)
As to B4, the Kd in assay [4] is 2.34 µM.

B5: HPV16 E7(22–39) wild-type 18-mer peptide (peptide)
peptide: LYCYEQLNDSSEEEDEID
notes: HPV16 E7 residues 22–39; source: synthetic peptide, bought: Dandicure (Korea)
The molecule B5 displayed a Ka in assay [6] of 299000 M⁻¹. The Kd in assay [4] came out at 3.34 µM.
